These results are taken from article PMC12786276.

The assay has as its target CD47 (endogenously expressed in MDA-MB-231 cells) (human (endogenous in MDA-MB-231)) (UniProt Q08722).
Chain of UniProt Q08722 (Q08722 19-323): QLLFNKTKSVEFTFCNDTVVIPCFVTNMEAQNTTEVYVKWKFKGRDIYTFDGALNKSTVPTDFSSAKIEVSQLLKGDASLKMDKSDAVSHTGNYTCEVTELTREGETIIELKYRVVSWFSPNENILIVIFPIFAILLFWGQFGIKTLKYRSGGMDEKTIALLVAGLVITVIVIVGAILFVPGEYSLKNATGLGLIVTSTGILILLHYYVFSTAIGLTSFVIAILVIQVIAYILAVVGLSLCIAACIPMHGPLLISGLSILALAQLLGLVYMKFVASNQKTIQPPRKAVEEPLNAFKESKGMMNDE

In the case of “integrin β3 subunit (endogenously expressed in MDA-MB-231 cells) (from UniProt P05106 27-788) (natural protein)”, the phagocytosis of MDA-MB-231 cells by macrophages (flow cytometry) after PSFL-NK13 (4 µM, 48 h) turned out to be 3 fold.
As for “integrin αv subunit (endogenously expressed in MDA-MB-231 cells) (natural protein)”, the figure is 3 fold.
